Assay results published in paper PMC3553968 (Nucleic Acids Research, 2012).

B1: Flag-Noc2p (natural protein)
chain: MGKVSKSTKKFQSKHLKHTLDQRRKEKIQKKRIQGRRGNKTDQEKADAAGTREQQQLKKSAKEEVFKDMSVETFFEKGIEIPKENKKLKKKTTKEQSDEDSSSSEEEEDMGQSMAKLAEKDPEFYKYLEENDKDLLDFAGTNPLDGIDSQDEGEDAERNSNIEEKSEQMELEKEKIELSLKLVRKWKKQLHDSPSLKLLRNIISAFKVAVNLNKEENIEDYKYAITDEKAFHELMFMVLKDVPQAIQKMAPYKIVKGARTLPNGGNVSRVSSIVKSHAGSLLILLNDITNTETAALVLHSVNELMPYLLSYRRILKELIKSIVGVWSTTRELETQIASFAFLINTTKEFKKSMLETTLKTTYSTFIKSCRKTNMRSMPLINFQKNSAAELFGIDEVLGYQVGFEYIRQLAIHLRNTMNATTKKSSKINSAEAYKIVYNWQFCHSLDFWSRVLSFACQPEKENGSESPLRQLIYPLVQVTLGVIRLIPTPQFFPLRFYLIKSLIRLSQNSGVFIPIYPLLSEILTSTAFTKAPKKSPNLAAFDFEHNIKCTQAYLNTKIYQEGLSEQFVDLLGDYFALYCKNIAFPELVTPVIISLRRYIKTSTNVKLNKRLSTVVEKLNQNSTFIQEKRSDVEFGPTNKSEVSRFLNDVAWNKTPLGSYVAVQREVKEEKARLMRESMEEQDKERETEEAKLLNSLESDDDNEDVEMSDA
B2: Noc1p (recombinant, untagged) (natural protein)
chain: MSENNGNPLDLSSLRNKISSKLRDNNSKKAKKTHKGKDVKASSNSKKVNEDIRREALALGASEEDLKLIQGLSDDDDAKSEQEFDAVADEDADDKGFKNDLQNFMKNVGFDQHKLEDVDDDDIEEESTSSKESKIPAQEKEHAQSNIASSTIEKTSQESIDNGSEQEENTVEEANLSSDQEPESESAEKEKKEEKDGGLITQTTIISSDKLIIPYDKPWYEIPLDPQVGQNDDVEELSKEQIEKLFERGKQTLEADNQTYYEEFTKDSSQAKFMSQILSDGTLNDKISAVTLLIQDSPLHNTKSLETLVSYCGKKSRNSALQSLNALKDLFLNGLLPNRKLRYFKNQPGLSMMLNKKTLAIFYFEDYLKKLFFRVLEVLEVLSHDPIIHVRLQILNHVFDLLTNQPEQEFNLLRLGVNKIGDIDSKVSSKASYLLLKLEQAHPNMKSIVIDAIVDIALRPNADYHTTYYSVITLNQTILKRSEDSVANKLVKTYFTLFEKFLINTDKDNTNGVVKSNSKSYEEKRKKNFKKGKHGGKSVKIEKTENEVLDEKNSKLFSALLTGINRAFPFAQIPASVYEVHMETLFKITHSSNFNTSIQALVLINQVTVKAKLNSDRYYRTLYESLFDPRLVNSSKQGIYLNLLYKSLKQDALNVERVEAFVKRILQVCSHWLNVGTITGFFFLLIQLAKTVPQIKNLLTNTPVDYEYESDAEEEQGDKDIKRKEYDGRKRDPKFANAEKSSLWEINNFINHFHPTVKTYANAYVTGETEQIAKPDLGLFTLSHFLDRFVYRSAKQTNTARGTSIMQPLFSGSRVNDSVLVKASDIMHDQGPVNTEDWLTKKVEDIKPEDKFFYQYFTTKKTADGKGKKSNKASNFDSDDEMDENEIWSALVKSRPDVEDDSDDSELDFAEDDFSDSTSDDEPKLDAIDDEDAKSEGSQESDQEEGLDEDIFYSFDGEQDNSDKKRSFAESSEEDESSEEEKEEEENKEVSAKRAKKKQRKNMLKSLPVFASADDYAQYLDQDSD

Tests used:
[1] = target: B2; assay: SEC
HA-Rrp5p = HA-Rrp5p (S. cerevisiae, UniProt Q05022 1-1729); assay: SEC
Sequence of HA-Rrp5p (Q05022 whole entry): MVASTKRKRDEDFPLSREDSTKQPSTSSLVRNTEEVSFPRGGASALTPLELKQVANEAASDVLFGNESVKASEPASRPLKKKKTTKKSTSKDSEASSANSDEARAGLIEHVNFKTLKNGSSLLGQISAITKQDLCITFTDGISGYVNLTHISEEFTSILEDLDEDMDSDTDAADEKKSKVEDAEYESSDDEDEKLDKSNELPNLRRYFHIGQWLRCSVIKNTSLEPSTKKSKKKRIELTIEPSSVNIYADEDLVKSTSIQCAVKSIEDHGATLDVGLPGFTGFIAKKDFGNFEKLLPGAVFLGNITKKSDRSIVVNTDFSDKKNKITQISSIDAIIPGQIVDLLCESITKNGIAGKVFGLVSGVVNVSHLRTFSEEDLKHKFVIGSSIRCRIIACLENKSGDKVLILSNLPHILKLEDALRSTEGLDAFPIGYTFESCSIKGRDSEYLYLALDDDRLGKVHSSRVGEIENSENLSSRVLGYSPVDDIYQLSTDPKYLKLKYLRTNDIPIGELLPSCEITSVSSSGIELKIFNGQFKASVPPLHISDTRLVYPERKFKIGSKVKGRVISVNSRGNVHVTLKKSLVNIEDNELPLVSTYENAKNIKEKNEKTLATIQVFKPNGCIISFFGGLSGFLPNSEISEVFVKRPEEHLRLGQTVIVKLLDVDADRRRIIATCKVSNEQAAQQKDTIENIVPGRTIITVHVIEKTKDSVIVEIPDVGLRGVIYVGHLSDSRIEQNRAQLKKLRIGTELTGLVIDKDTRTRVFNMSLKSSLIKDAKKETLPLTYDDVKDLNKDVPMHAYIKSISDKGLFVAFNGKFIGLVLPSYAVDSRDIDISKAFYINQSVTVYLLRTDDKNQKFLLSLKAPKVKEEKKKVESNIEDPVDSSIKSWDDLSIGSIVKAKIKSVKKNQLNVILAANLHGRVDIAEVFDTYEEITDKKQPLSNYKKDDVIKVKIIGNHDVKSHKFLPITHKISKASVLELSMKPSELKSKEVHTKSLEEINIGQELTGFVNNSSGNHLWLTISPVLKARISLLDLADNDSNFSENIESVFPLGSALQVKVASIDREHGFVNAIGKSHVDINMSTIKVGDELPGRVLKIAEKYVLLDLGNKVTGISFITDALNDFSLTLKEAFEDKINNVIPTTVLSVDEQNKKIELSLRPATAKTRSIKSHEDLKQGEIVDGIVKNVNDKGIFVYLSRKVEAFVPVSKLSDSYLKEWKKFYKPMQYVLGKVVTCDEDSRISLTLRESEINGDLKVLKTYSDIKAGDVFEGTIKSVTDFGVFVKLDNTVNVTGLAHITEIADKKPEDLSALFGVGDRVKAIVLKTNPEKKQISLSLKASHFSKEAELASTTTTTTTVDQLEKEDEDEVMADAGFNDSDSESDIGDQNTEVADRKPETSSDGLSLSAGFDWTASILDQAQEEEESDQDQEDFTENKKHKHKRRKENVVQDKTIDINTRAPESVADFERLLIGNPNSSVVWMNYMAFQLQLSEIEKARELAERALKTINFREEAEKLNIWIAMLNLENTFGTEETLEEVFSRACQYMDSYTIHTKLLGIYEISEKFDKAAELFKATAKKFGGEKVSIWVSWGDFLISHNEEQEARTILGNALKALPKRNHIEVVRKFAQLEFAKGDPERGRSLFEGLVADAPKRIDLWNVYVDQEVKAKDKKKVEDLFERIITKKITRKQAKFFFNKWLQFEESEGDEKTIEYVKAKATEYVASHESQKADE

binding result [1] | binding result (HA-Rrp5p) | Binder
binds | – | B1
– | binds | B2
